From patent US20040229309A1 (KUMAMOTO TECHNOLOGY AND INDUSTRY FOUNDATION, published 2004)

Target: T1, mouse GANP protein (mouse, UniProt Q9WUU9 1-1971)
T1 construct: Endogenous 210-kD protein in lysates, cytoplasmic and nuclear fractions of WEHI-231 cells and in mouse spleen B cells; The deduced polypeptide has 1971 amino acids; It is phosphorylated at serine/threonine in the in vitro kinase reactions; also called GANP antigen; 29-15 Ag
Experiment: co-immunoprecipitation from WEHI-231 lysate, Western blot with anti-MCM3; in vitro kinase assay and V8 cleavage mapping

T1 sequence (Q9WUU9 other isoform, or with tags, fused parts or gaps limits assumed): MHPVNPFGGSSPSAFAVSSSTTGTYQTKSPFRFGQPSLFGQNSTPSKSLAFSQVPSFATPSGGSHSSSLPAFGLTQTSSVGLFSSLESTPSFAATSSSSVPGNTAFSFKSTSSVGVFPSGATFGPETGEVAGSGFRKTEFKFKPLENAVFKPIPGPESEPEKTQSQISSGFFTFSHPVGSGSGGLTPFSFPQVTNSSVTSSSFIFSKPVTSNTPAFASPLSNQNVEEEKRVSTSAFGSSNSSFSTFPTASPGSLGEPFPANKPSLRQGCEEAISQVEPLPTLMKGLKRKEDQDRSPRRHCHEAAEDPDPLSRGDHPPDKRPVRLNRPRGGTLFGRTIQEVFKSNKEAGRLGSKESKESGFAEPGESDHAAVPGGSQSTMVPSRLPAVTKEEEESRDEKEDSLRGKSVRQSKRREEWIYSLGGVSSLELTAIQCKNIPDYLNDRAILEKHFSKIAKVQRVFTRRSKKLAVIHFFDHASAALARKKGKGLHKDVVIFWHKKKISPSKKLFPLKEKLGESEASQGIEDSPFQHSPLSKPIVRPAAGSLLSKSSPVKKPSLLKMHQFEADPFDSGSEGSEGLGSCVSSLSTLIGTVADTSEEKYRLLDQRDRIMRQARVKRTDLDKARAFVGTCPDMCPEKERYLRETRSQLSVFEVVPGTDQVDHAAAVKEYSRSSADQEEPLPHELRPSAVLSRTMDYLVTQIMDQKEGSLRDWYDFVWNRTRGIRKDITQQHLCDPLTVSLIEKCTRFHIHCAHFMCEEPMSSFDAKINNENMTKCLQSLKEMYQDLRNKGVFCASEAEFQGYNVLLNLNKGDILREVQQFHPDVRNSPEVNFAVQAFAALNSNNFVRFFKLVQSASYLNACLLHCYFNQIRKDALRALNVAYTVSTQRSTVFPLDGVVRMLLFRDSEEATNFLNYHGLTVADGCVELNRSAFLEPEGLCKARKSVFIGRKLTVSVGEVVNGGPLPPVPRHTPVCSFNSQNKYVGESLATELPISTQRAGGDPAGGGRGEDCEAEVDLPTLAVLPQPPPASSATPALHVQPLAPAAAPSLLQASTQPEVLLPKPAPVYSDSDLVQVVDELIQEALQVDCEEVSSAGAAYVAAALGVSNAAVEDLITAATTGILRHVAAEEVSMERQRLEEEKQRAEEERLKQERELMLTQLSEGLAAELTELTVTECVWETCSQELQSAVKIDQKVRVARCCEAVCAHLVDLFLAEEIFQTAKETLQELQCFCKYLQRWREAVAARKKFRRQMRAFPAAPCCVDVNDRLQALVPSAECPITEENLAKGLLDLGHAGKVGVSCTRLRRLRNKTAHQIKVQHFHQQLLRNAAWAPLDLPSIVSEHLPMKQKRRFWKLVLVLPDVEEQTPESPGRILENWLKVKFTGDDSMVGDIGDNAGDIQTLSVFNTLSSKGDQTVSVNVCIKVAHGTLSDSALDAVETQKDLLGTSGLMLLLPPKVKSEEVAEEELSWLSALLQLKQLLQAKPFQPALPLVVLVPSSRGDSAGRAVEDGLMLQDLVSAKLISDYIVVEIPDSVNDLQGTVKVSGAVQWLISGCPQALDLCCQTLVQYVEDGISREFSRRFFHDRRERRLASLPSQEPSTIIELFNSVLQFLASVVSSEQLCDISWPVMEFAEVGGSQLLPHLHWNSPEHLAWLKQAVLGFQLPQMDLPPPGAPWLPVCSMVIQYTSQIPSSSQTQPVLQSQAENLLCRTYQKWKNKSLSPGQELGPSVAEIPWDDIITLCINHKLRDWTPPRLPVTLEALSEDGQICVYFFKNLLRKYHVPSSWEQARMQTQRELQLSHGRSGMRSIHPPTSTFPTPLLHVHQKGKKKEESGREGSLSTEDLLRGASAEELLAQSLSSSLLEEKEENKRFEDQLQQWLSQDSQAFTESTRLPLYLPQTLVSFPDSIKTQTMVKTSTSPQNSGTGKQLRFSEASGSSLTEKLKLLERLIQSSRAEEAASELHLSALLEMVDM

binding result: binds
B1: MCM3 protein (other, mouse, UniProt P25206 2-812, looked up)
chain: AGTVVLDDVELREAQRDYLDFLDDEEDQGIYQNKVRELISDNQYRLIVSVNDLRRKNEKRANRLLNNAFEELVAFQRALKDFVASIDATYAKQYEEFYIGLEGSFGSKHVSPRTLTSCFLSCVVCVEGIVTKCSLVRPKVVRSVHYCPATKKTIERRYSDLTTLVAFPSSSVYPTKDEENNPLETEYGLSVYKDHQTITIQEMPEKAPAGQLPRSVDVILDDDLVDKVKPGDRIQVVGTYRCLPGKKGCYTSGTFRTVLIACNVKQMSKDIQPAFSADDIAKIKKFSKTRSKDVFEQLARSLAPSIHGHDYVKKAILCLLLGGVERELENGSHIRGDINILLIGDPSVAKSQLLRYVLCTAPRAIPTTGRGSSGVGLTAAVTTDQETGERRLEAGAMVLADRGVVCIDEFDKMSDMDRTAIHEVMEQGRVTIAKAGIHARLNARCSVLAAANPVYGRYDQYKTPMENIGLQDSLLSRFDLLFIMLDQMDPEQDREISDHVLRMHQYRAPGEQDGDALPLGSSVDILATDDPDFTQDDQQDTRIYEKHDSLLHGTKKKKEKMVSAAFMKKYIHVAKIIKPTLTQESAAYIAEEYSRLRSQDSMSSDTARTSPVTARTLETLIRLATAHAKARMSKTVDLQDAEEAVELVQYAYFKKVLEKEKKRKKASEDESDLEDEEEKSQEDTEQKRKRRKTHAKDGESYDPYDFSEAETQMPQVHTPKTDDSQEKTDDSQETQDSQKVELSEPRLKAFKAALLEVFQEAHEQSVGMLHLTESINRNREEPFSSEEIQACLSRMQDDNQVMVSEGIVFLI
notes: also called MCM3/P1
